These results are taken from US20260184748A1, “COMPOSITIONS COMPRISING OCTADECANEUROPEPTIDES (ODN) AND SYNTHETIC DERIVATIVES THEREOF AND METHODS OF USE FOR MODULATION OF FOOD INTAKE, OBESITY, BODY WEIGHT, NAUSEA, AND EMESIS” (The Trustees of the University of Pennsylvania, priority 2022, published 2026).

Where no end group is shown, it is not given here.

Common to all, as to assay: Arrestin agonist mode
Holding throughout (format): cell-based

One test concerns the target T1, CCR1 (Homo sapiens, UniProt P32246).
T1 sequence (P32246 1-355): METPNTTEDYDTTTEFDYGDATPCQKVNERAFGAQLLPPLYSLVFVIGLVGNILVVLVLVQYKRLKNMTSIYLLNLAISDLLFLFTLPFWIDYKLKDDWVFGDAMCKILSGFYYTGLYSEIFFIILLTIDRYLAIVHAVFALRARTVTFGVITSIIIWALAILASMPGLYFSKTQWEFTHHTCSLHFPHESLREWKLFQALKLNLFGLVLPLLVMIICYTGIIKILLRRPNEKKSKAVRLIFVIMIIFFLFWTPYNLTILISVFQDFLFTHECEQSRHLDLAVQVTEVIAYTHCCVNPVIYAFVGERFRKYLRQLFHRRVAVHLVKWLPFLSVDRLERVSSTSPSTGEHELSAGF
To be noted: read-out: RC50 (the source's name).

For a further test, the target named is CCR5 (Homo sapiens, UniProt P51681). To be noted: read-out: RC50 (the source's name).
Sequence of CCR5 (P51681 whole entry): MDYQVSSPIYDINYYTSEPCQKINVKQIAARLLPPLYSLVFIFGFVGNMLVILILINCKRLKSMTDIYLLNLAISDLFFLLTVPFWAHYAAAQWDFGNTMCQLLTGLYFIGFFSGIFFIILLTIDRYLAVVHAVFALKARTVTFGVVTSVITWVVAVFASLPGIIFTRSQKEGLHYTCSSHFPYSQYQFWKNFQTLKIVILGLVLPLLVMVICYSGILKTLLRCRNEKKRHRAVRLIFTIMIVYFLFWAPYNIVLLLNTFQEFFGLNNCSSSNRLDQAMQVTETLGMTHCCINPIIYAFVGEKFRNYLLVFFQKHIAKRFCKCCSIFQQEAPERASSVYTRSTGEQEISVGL
For another test, the target named is CCR2 (Homo sapiens, UniProt P41597). To be noted: read-out: RC50 (the source's name).
Sequence of CCR2 (P41597 whole entry): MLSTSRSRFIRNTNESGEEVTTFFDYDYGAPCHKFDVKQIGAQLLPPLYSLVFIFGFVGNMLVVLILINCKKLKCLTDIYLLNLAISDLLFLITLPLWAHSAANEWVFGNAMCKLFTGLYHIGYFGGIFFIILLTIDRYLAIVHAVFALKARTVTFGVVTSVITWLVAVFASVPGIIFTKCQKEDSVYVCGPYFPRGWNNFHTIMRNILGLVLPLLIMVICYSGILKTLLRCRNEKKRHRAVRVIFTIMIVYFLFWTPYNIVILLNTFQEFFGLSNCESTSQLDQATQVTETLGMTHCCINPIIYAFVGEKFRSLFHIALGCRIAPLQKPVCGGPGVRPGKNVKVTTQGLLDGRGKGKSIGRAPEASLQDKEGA
The target in the next test is T2, CXCR3 (Homo sapiens, UniProt P49682).
T2 sequence (P49682 1-368): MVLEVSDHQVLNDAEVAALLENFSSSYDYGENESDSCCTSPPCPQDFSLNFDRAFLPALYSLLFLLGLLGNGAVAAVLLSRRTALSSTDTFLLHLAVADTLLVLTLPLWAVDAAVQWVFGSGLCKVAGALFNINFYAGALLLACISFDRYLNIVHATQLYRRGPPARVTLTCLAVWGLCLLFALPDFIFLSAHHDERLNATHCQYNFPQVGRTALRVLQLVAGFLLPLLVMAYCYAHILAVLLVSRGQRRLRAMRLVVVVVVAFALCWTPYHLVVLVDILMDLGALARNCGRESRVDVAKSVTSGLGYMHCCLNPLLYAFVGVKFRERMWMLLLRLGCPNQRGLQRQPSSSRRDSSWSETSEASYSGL
To be noted: read-out: RC50 (the source's name).

The target in the next test is T3, CXCR2 (Homo sapiens, UniProt P25025).
T3 sequence (P25025 1-360): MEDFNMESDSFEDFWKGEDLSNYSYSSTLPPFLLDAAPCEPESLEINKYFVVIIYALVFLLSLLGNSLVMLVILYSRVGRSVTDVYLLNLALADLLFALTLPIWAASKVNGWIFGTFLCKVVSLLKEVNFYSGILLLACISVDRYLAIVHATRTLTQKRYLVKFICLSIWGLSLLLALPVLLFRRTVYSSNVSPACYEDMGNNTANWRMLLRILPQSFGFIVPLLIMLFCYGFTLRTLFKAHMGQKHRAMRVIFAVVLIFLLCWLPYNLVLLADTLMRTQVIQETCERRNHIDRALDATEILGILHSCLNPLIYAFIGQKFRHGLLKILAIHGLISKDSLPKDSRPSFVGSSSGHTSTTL
To be noted: read-out: RC50 (the source's name).

The target in the next test is T4, CXCR1 (Homo sapiens, UniProt P25024).
T4 sequence (P25024 1-350): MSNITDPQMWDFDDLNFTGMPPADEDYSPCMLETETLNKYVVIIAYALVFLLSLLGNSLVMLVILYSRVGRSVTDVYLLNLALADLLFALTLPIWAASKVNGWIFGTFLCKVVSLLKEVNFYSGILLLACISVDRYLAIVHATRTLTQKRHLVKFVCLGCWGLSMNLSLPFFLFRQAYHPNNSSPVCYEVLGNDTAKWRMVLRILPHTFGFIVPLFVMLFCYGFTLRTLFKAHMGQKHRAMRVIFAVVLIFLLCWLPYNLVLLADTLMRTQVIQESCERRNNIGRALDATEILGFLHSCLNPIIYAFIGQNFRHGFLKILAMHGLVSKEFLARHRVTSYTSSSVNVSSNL
To be noted: read-out: RC50 (the source's name).

The target of a further test is T5, CCR3 (Homo sapiens, UniProt P51677).
T5 sequence (P51677 1-355): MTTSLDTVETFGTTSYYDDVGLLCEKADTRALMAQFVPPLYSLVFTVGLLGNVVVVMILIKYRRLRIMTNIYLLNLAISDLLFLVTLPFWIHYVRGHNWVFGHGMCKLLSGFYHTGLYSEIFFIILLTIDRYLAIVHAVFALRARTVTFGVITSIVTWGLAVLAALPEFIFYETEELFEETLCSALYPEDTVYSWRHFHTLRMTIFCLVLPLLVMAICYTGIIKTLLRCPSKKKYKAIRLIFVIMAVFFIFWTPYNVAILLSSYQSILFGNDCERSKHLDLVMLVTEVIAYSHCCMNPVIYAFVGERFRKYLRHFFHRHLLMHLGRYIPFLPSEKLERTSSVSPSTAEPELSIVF
To be noted: read-out: RC50 (the source's name).

The next test has as its target EDG3 (Homo sapiens, UniProt Q99500). To be noted: read-out: RC50 (the source's name).
For the next test, the target named is EDG6 (Homo sapiens, UniProt O95977). To be noted: read-out: RC50 (the source's name).
Sequence of EDG6 (O95977 whole entry): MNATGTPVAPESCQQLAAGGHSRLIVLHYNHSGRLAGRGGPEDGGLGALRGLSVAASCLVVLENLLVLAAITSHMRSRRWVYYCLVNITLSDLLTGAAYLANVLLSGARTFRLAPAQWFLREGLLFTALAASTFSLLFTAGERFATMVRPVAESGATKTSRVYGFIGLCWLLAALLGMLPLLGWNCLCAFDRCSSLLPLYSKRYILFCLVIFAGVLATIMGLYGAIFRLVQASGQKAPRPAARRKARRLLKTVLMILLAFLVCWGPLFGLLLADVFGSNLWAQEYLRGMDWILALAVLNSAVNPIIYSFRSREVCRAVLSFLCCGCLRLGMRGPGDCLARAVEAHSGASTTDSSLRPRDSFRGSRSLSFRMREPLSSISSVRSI
Another test addresses EDG1 (Homo sapiens, UniProt P21453). To be noted: read-out: RC50 (the source's name).
Another test concerns the target EBI2 (Homo sapiens, UniProt P32249).
The next test deals with T6, CX3CR1 (Homo sapiens, UniProt P49238).
T6 sequence (P49238 1-355): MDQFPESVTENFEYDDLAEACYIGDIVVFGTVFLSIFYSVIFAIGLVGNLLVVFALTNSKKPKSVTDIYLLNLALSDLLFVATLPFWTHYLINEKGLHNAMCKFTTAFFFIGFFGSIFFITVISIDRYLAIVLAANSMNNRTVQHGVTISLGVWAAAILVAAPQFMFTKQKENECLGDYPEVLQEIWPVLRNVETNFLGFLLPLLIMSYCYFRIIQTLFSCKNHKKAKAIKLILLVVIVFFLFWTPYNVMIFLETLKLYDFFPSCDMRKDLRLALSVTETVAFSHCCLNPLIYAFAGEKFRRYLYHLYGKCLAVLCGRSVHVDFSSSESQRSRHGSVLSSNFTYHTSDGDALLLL
To be noted: read-out: RC50 (the source's name).

Another test addresses CRTH2 (Homo sapiens, UniProt Q9Y5Y4). To be noted: read-out: RC50 (the source's name).
The target of a further test is T7, CCR7 (Homo sapiens, UniProt P32248).
T7 sequence (P32248 25-378): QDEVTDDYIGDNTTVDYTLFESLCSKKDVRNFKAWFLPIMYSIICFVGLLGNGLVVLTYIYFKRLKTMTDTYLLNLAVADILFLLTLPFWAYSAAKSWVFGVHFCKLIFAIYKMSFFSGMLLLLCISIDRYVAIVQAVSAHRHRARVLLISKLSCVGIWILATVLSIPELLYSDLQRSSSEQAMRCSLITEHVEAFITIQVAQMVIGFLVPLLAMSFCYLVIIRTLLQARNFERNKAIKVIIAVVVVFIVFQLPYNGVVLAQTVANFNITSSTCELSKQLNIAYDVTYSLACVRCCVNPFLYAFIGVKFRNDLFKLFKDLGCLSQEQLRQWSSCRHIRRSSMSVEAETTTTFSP
To be noted: read-out: RC50 (the source's name).

A further test addresses T8, CXCR5 (Homo sapiens, UniProt P32302).
T8 sequence (P32302 1-372): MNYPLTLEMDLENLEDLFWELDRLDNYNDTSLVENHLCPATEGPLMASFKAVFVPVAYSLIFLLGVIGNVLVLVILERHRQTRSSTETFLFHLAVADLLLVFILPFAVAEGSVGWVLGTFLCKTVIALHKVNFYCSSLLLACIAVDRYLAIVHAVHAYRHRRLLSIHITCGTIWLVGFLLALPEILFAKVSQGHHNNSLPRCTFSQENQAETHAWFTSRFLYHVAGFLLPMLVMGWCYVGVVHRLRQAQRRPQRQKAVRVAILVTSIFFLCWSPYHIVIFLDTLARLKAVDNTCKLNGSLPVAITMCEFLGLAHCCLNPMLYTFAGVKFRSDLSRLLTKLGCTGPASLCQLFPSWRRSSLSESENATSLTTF
To be noted: read-out: RC50 (the source's name).

A further test addresses T9, GPR1 (Homo sapiens, UniProt P46091).
T9 sequence (P46091 1-355): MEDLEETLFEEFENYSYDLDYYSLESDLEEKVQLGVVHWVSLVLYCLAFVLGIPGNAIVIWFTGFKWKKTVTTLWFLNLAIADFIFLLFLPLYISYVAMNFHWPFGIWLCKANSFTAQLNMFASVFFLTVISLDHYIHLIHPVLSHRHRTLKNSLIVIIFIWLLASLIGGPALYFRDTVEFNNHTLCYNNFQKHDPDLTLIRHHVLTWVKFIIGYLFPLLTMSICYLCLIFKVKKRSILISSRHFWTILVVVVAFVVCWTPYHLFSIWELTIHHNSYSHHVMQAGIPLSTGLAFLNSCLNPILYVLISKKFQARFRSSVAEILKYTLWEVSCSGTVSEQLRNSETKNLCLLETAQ
To be noted: read-out: RC50 (the source's name).

The next test addresses GPR103 (Homo sapiens, UniProt Q96P65). To be noted: read-out: RC50 (the source's name).
For the next test, the target named is T10, CCR6 (Homo sapiens, UniProt P51684).
T10 sequence (P51684 1-374): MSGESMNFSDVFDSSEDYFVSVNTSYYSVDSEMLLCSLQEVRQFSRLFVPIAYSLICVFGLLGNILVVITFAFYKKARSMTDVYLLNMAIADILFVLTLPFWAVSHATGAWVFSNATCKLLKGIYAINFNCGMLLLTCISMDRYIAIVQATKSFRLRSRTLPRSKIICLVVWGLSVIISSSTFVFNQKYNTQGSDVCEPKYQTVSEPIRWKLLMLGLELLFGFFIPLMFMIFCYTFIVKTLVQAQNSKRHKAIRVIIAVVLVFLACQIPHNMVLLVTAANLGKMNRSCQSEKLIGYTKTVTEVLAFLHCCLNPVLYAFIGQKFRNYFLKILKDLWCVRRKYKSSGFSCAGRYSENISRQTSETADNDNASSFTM
To be noted: read-out: RC50 (the source's name).

For another test, the target named is FFAR1 (Homo sapiens, UniProt O14842). To be noted: read-out: RC50 (the source's name).
Sequence of FFAR1 (O14842 whole entry): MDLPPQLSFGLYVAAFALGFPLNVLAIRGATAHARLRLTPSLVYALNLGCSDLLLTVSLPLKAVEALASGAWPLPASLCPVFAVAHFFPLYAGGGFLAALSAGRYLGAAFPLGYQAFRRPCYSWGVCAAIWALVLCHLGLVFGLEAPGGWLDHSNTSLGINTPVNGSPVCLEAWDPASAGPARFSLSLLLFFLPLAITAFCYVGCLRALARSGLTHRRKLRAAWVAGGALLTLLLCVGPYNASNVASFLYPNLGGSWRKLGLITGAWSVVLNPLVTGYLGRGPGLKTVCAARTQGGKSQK

Sequence of EDG3 (Q99500 whole entry): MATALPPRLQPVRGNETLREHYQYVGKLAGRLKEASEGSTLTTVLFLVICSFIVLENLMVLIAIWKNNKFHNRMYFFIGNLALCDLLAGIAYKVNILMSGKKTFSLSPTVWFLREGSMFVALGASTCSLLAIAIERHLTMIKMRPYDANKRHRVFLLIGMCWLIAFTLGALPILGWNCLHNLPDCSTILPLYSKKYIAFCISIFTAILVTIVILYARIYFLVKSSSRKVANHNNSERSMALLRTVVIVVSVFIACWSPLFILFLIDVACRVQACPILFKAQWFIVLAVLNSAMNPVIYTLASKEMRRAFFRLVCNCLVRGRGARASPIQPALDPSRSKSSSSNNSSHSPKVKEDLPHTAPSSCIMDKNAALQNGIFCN
Sequence of EDG1 (P21453 whole entry): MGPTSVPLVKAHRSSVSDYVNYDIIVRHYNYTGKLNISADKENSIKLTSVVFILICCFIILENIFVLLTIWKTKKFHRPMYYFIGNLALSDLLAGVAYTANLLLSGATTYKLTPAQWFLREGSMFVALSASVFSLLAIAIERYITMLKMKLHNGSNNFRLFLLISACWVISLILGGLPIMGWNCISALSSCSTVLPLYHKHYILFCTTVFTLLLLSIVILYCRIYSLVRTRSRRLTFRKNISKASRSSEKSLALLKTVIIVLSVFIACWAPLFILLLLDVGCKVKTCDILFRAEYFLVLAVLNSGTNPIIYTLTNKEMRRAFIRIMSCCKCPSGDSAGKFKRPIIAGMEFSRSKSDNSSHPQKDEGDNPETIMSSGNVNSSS
Sequence of GPR103 (Q96P65 whole entry): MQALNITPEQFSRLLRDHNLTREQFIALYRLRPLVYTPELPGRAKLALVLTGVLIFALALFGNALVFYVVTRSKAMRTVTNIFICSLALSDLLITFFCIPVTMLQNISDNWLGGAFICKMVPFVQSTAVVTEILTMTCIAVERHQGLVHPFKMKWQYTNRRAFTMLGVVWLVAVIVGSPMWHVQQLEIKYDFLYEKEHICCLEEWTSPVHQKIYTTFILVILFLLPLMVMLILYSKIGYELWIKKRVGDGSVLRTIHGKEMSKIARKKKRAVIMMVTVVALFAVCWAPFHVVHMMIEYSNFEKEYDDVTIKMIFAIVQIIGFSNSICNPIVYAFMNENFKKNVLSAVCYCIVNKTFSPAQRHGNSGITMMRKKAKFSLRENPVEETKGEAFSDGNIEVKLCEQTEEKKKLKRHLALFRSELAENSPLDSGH
Sequence of EBI2 (P32249 whole entry): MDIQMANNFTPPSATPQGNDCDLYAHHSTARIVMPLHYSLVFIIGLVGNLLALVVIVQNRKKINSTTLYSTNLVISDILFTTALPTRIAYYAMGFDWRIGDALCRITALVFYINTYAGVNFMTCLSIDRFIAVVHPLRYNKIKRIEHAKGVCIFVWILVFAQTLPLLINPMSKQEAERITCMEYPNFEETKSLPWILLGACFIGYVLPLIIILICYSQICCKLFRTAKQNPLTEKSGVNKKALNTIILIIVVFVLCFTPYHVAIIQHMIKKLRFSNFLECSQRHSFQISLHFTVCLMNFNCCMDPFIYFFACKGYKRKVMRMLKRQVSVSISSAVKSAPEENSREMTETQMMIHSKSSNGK
Sequence of CRTH2 (Q9Y5Y4 whole entry): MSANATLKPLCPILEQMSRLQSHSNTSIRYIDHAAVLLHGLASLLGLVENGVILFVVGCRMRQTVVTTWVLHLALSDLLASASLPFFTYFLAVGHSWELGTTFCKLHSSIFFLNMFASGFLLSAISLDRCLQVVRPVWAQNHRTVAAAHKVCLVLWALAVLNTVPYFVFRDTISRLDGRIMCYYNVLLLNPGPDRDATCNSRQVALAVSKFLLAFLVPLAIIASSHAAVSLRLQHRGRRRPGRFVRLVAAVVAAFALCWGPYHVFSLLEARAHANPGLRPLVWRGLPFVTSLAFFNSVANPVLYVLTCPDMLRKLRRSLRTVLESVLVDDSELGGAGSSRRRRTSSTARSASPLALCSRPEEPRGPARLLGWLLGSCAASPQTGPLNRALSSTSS

Take CCL3: control agonist: the EC50 came to 1.04 nM in the test with CCR1 and 7.55 nM in the test with CCR5. Regarding CCL2: control agonist, in the test with CCR2, the EC50 was 2.63 nM.

Take CXCL11: control agonist: the EC50 with CXCR3 came out at 12 nM. For CXCL8: control agonist, the EC50 came to 0.304 nM with CXCR2 and 2.8 nM with CXCR1.

Consider CCL13: control agonist, for which the EC50 in the test with CCR3 amounted to 40.6 nM. Regarding `CCCCCCCCCCCCC/C=C/[C@@H](O)[C@@H](N)COP(=O)(O)O` [S-1-P], the EC50 at EDG3 was 10.6 nM; at EDG6 it was 30.5 nM; at EDG1, 19 nM. `C[C@H](CCCC(C)(C)O)[C@H]1CC[C@H]2[C@@H]3[C@H](O)C=C4C[C@@H](O)CC[C@]4(C)[C@H]3CC[C@]12C` [7a,25-Dihydroxycholesterol] registered an EC50 at EBI2 of 3.63 nM. Consider Fractalkine: control agonist, for which the EC50 in the test with CX3CR1 was 0.444 nM. Turning to `CCCCC[C@H](O)/C=C/[C@H]1C(=O)C[C@H](O)[C@@H]1C/C=C\CCCC(=O)O` [PGD2], the EC50 on CRTH2 was determined as 3.34 nM. Turning to CCL19: control agonist, the EC50 with CCR7 turned out to be 5.65 nM. As to CXCL13: control agonist, the EC50 with CXCR5 was 21 nM. As for Chemerin: control agonist, in the test with GPR1, the EC50 was 2.26 nM. Regarding “TSGPLGNLAEELNGYSRKKGGFSFRF-NH2 (C-terminus assumed) [QRFP-26]”, the EC50 on GPR103 was 10 nM. Consider CCL20: control agonist, for which the EC50 with CCR6 was found to be 2.95 nM.

With `O=C(O)CCc1ccc(NCc2cccc(Oc3ccccc3)c2)cc1` [GW9508], on FFAR1, the EC50 came to 959 nM.
